Results: the supplement of paper PMC9732359
± gives the uncertainty stated by the source.

Assay: protein stability index of a GFP-peptide fusion (yeast GPS) (PSI 1-4); higher = more stable; sorted into four equal gates, so the index is relative within each strain
Outline: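 Plasmids in a pooled yeast library fused tiled 17-residue yeast protein peptides downstream of GFP and also expressed Cherry. Mid-log cultures grown without leucine were sorted into four equal gates by GFP/Cherry fluorescence ratio. Each gate's plasmids were PCR-amplified and Illumina-sequenced, and reads were matched to strains by barcodes. The protein stability index is derived by multiplying each gate's read frequency by its gate number and summing the results.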

VLLTFLQDELHKVSSQS [YCS4]
protein stability index (doa10∆): 3.54 ± 0.17
protein stability index (pdr5∆): 3.45 ± 0.2
protein stability index (san1∆): 2.95 ± 0.23
protein stability index (ubr1∆): 3.27 ± 0.13

GGDGRDYKGAKLNVVGW [RRI1]
protein stability index (doa10∆): 3.15 ± 0.15
protein stability index (pdr5∆): 3.15 ± 0.15
protein stability index (san1∆): 2.56 ± 0.12
protein stability index (ubr1∆): 3.23 ± 0.084

DGIGGLTEQIRELREVI [RPT4]
protein stability index (pdr5∆): 3.65 ± 0.28

ITHKLTKNDAGSKQILK [BRR2]
protein stability index (doa10∆): 3.07 ± 0.071
protein stability index (pdr5∆): 3.43 ± 0.079
protein stability index (san1∆): 3.21 ± 0.036
protein stability index (ubr1∆): 3.23 ± 0.055

SFSFSIPSKNTPDASKP [YLR335W/NUP2]
protein stability index (doa10∆): 2.42 ± 0.04
protein stability index (pdr5∆): 2.45 ± 0.042
protein stability index (san1∆): 2.28 ± 0.045
protein stability index (ubr1∆): 2.5 ± 0.037

GISSAYIKSATLYSVKS [SNU114]
protein stability index (doa10∆): 1.39 ± 0.12
protein stability index (pdr5∆): 1.43 ± 0.11
protein stability index (san1∆): 1.67 ± 0.26
protein stability index (ubr1∆): 1.75 ± 0.17

PQNMLFEGCYYTPEESA [RPC25]
protein stability index (pdr5∆): 2.42 ± 0.21
protein stability index (san1∆): 2.55 ± 0.21
protein stability index (ubr1∆): 2.5 ± 0.12

HQSLGPDGLGEVGMKVQ [RET1]
protein stability index (doa10∆): 2.7 ± 0.16

NDNENIVNNDLPTTVVS [MED2]
protein stability index (doa10∆): 2.55 ± 0.053
protein stability index (pdr5∆): 2.8 ± 0.05
protein stability index (san1∆): 2.63 ± 0.042
protein stability index (ubr1∆): 2.89 ± 0.039

LSLEEVEGHLFEIIDEA [FAS1]
protein stability index (doa10∆): 3.01 ± 0.11
protein stability index (pdr5∆): 3.29 ± 0.1
protein stability index (san1∆): 3.09 ± 0.063
protein stability index (ubr1∆): 3.07 ± 0.069

KITTSTEDQKVTTNINW [SRP68]
protein stability index (doa10∆): 3.13 ± 0.078
protein stability index (pdr5∆): 3.13 ± 0.072
protein stability index (san1∆): 3.21 ± 0.068
protein stability index (ubr1∆): 3.11 ± 0.054

NNLEKYPFRYKTWLRNQ [RTT102]
protein stability index (doa10∆): 3.37 ± 0.077
protein stability index (pdr5∆): 3.39 ± 0.053
protein stability index (san1∆): 3.32 ± 0.061
protein stability index (ubr1∆): 3.38 ± 0.067

AQADKQDISSSTRVEFE [FAS2]
protein stability index (doa10∆): 3.12 ± 0.081
protein stability index (pdr5∆): 3.17 ± 0.068
protein stability index (san1∆): 3.08 ± 0.06
protein stability index (ubr1∆): 3.33 ± 0.055

SPTYSPTSPAYSPTSPS [RPO21]
protein stability index (doa10∆): 3.08 ± 0.045
protein stability index (pdr5∆): 3.05 ± 0.042
protein stability index (san1∆): 3 ± 0.032
protein stability index (ubr1∆): 2.93 ± 0.033

VDFIKHSLSQAIKWDGS [PRE3]
protein stability index (doa10∆): 1.75 ± 0.15
protein stability index (pdr5∆): 2.29 ± 0.12
protein stability index (san1∆): 1.61 ± 0.26
protein stability index (ubr1∆): 2.48 ± 0.2

TNKENNIVDSSAAGNKA [YIL149C/MLP2]
protein stability index (doa10∆): 2.18 ± 0.061
protein stability index (pdr5∆): 2.44 ± 0.057
protein stability index (san1∆): 2.87 ± 0.041
protein stability index (ubr1∆): 2.92 ± 0.036

QSKEILKGLLQELKADS [SRP72]
protein stability index (doa10∆): 2.36 ± 0.17
protein stability index (pdr5∆): 2.13 ± 0.27
protein stability index (san1∆): 2.75 ± 0.096
protein stability index (ubr1∆): 2.6 ± 0.11

LKHLEEMGKLRERDITS [RRI2]
protein stability index (doa10∆): 2.76 ± 0.079
protein stability index (pdr5∆): 2.58 ± 0.11
protein stability index (san1∆): 2.55 ± 0.15
protein stability index (ubr1∆): 3.16 ± 0.068

PITASMAAALPNPTPSM [PGD1]
protein stability index (doa10∆): 2.47 ± 0.083
protein stability index (pdr5∆): 2.54 ± 0.066
protein stability index (san1∆): 2.55 ± 0.073
protein stability index (ubr1∆): 2.51 ± 0.067

VDDVLETISAIEHPMTS [RPN1]
protein stability index (doa10∆): 3.15 ± 0.13
protein stability index (pdr5∆): 3.2 ± 0.091
protein stability index (san1∆): 2.79 ± 0.16
protein stability index (ubr1∆): 2.91 ± 0.083

ERAARVVKGRVEKTLLS [RPO31]
protein stability index (doa10∆): 3.37 ± 0.19
protein stability index (pdr5∆): 3.27 ± 0.18
protein stability index (ubr1∆): 3.5 ± 0.1
